Assay results reported in paper PMC9893541 (BMC Biology, 2023).
One block for each binder: values may come before it.

B1: FC-(ActRIIb)2 (Fc fusion, UniProt Q13705-1 19-137, looked up)
chain: SGRGEAETRECIYYNANWELERTNQSGLERCEGEQDKRLHCYASWRNSSGTIELVKKGCWLDDFNCYDRQECVATEENPQVYFCCCEGNFCNERFTHLPEAGGPEVTYEPPPTAPTLLT
notes: type 2 receptor ActRIIb (ACVR2B) in a recombinant chimeric Fc-receptor; also called (ActRIIB)2-Fc; source: bought: R&D (Cat# 339-RB-100/CF)
B4: FC-(Alk3)2 (Fc fusion, UniProt P36894 24-152, looked up)
chain: QNLDSMLHGTGMKSDSDQKKSENGVTLAPEDTLPFLKCYCSGHCPDDAINNTCITNGHCFAIIEEDDQGETTLASGCMKYEGSDFQCKDSPKAQLRRTIECCRTNLCNQYLQPTLPPVVIGPFFDGSIR
notes: type 1 receptor Alk3 (BMPR1A) in a recombinant chimeric Fc-receptor; also called chimeric FC-receptor; source: bought: R&D (Cat# 315-BR-100/CF)
B5: GDF5 homodimer (ligand, human, UniProt P43026 382-501, looked up)
chain: APLATRQGKRPSKNLKARCSRKALHVNFKDMGWDDWIIAPLEYEAFHCEGLCEFPLRSHLEPTNHAVIQTLMNSMDPESTPPTCCVPTRLSPISILFIDSANNVVYKQYEDMVVESCGCR
notes: Growth and Differentiation Factor 5 (GDF5), mature domain; Dimer stabilised by an inter-chain disulfide bond; also called homodimeric GDF5; Growth and Differentiation Factor 5
B6: mature GDF5 (single chain) (natural protein, human, UniProt P43026 382-501, looked up)
chain: APLATRQGKRPSKNLKARCSRKALHVNFKDMGWDDWIIAPLEYEAFHCEGLCEFPLRSHLEPTNHAVIQTLMNSMDPESTPPTCCVPTRLSPISILFIDSANNVVYKQYEDMVVESCGCR
notes: Growth and Differentiation Factor 5 (GDF5), mature domain; The single chain before dimerisation; used for the rows on dimer formation; also called GDF5 monomer; GDF5 chain; source: E. coli Rosetta (DE3), inclusion bodies, solubilised in urea, clarified (minimum 90 % purity)
B8: FC-(BMPR2)2 (Fc fusion, UniProt Q13873 27-150, looked up)
chain: SQNQERLCAFKDPYQQDLGIGESRISHENGTILCSKGSTCYGLWEKSKGDINLVKQGCWSHIGDPQECHYEECVVTTTPPSIQNGTYRFCCCSTDLCNVNFTENFPPPDTTPLSPPHSFNRDET
notes: type 2 receptor BMPR2 in a recombinant chimeric Fc-receptor; source: bought: R&D (Cat# 811-BR-100)

Experiments:
GDF5 homodimer = target: B5; assay: SPR; chimeric Fc-type 2 receptor coupled to a Series S Protein A chip; ligands 100-0.198 nM in SPR buffer, 300 s association, 1000 s dissociation; steady-state analysis; apparent affinities; average of N=2; settings: both partners purified
BMP2/GDF5 heterodimer = target: T1, BMP2/GDF5 heterodimer (human, UniProt P12643 283-396; P43026 382-501); assay: as above; settings: both partners purified
T1 construct: bone morphogenetic protein 2 (BMP2), mature domain; Growth and Differentiation Factor 5 (GDF5), mature domain; Made by people from two natural mature chains; disulfide-linked dimer; also called GDF5/BMP2; WT heterodimer; copies: 1 + 1

BMP4/GDF5 heterodimer [1] = target: T2, BMP4/GDF5 heterodimer (human, UniProt P12644 293-408; P43026 382-501); assay: as above; settings: both partners purified
T2 construct: additional Met residue on the N-terminus of the BMP4 construct; bone morphogenetic protein 4 (BMP4), mature domain; Growth and Differentiation Factor 5 (GDF5), mature domain; Made by people from two natural mature chains; disulfide-linked dimer; also called GDF5/BMP4; copies: 1 + 1
T2 sequence 1: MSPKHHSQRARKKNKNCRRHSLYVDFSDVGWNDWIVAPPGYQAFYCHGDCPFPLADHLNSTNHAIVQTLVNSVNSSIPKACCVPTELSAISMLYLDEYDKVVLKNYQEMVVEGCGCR
T2 sequence 2: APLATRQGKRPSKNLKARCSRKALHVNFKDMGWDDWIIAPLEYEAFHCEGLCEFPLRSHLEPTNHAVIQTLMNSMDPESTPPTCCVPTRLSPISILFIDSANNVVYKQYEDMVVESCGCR

[2] = target: B6; assay: oxidative refolding of mixed chains, heparin affinity chromatography, SDS-PAGE and Western blot (reducing and non-reducing), MALDI-TOF mass spectrometry; solubilised inclusion bodies mixed in a 1:1 molar ratio, refolded 5 days in 0.1 M Tris pH 8.5, 0.5 M L-arginine, 0.3 % CHAPS, 150 mM NaCl, 1 mM reduced and 1 mM oxidized glutathione, 1 mM EDTA; heparin column eluted with 150-650 mM NaCl; disulfide-linked dimers; settings: both partners purified
[3] = target: the molecule itself; assay: as above
BMP4/GDF5 heterodimer [4] = target: T2, BMP4/GDF5 heterodimer; assay: SPR; BIAcore T-200; chimeric Fc-type 1 receptor coupled to a Series S Protein A chip; ligands 6.25-0.049 nM flowed at 50 uL/min, 300 s association, 1000 s dissociation; 20 mM HEPES pH 7.4, 350 mM NaCl, 0.005 % P-20, 0.5 mg/mL BSA, 3.4 mM EDTA; kinetic 1:1 fit (also a bivalent fit); apparent KD = kd/ka; average of N=2; settings: both partners purified
FC-(Alk3)2 = target: B4; assay: as above; settings: both partners purified
FC-(Alk6)2 = target: T3, FC-(Alk6)2 (UniProt O00238 14-126); assay: as above; settings: both partners purified
T3 construct: type 1 receptor Alk6 (BMPR1B) in a recombinant chimeric Fc-receptor; also called chimeric FC-receptor; source: bought: R&D (Cat# 505-PR-100)
T3 sequence (looked up): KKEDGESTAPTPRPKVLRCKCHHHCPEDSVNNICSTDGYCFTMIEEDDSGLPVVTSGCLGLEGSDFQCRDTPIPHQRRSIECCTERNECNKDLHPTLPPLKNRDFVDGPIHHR

FC-(ActRIIb)2 = target: B1; assay: SPR; chimeric Fc-type 2 receptor coupled to a Series S Protein A chip; ligands 100-0.198 nM in SPR buffer, 300 s association, 1000 s dissociation; steady-state analysis; apparent affinities; average of N=2; settings: both partners purified
FC-(BMPR2)2 = target: B8; assay: as above; settings: both partners purified

Binder: B1
- binding result (GDF5 homodimer): binds
- binding result (BMP2/GDF5 heterodimer): binds
- binding result (BMP4/GDF5 heterodimer [1]): binds

Binder: B4
- Kd (BMP4/GDF5 heterodimer [4]): 0.029 nM

Binder: B5
- Kd (FC-(Alk3)2): 0.328 nM

Binder: B6
- binding result [3]: binds

B7: BMP2_L333P/GDF5 heterodimer (complex, human)
chain 1: QAKHKQRKRLKSSCKRHPLYVDFSDVGWNDWIVAPPGYHAFYCHGECPFPPADHLNSTNHAIVQTLVNSVNSKIPKACCVPTELSAISMLYLDENEKVVLKNYQDMVVEGCGCR
chain 2: APLATRQGKRPSKNLKARCSRKALHVNFKDMGWDDWIIAPLEYEAFHCEGLCEFPLRSHLEPTNHAVIQTLMNSMDPESTPPTCCVPTRLSPISILFIDSANNVVYKQYEDMVVESCGCR
notes: bone morphogenetic protein 2 (BMP2), mature domain, with L333P; Growth and Differentiation Factor 5 (GDF5), mature domain, wild type; Predicted by the authors to have one disrupted type 1 site (GFBW) and one functional site (BFGW); also called mutant heterodimer; copies: 1 + 1
- fold decrease in KD (so in the source) against WT GDF5 homodimer (FC-(Alk6)2): ~5 fold

Binder: B8
- binding result (BMP2/GDF5 heterodimer): binds
- binding result (BMP4/GDF5 heterodimer [1]): binds

More lines, main results first:

- binding result [2]: binds
B2: mature BMP2 (single chain) (natural protein, human, UniProt P12643 283-396, looked up)
chain: QAKHKQRKRLKSSCKRHPLYVDFSDVGWNDWIVAPPGYHAFYCHGECPFPLADHLNSTNHAIVQTLVNSVNSKIPKACCVPTELSAISMLYLDENEKVVLKNYQDMVVEGCGCR
notes: bone morphogenetic protein 2 (BMP2), mature domain; The single chain before dimerisation; used for the rows on dimer formation; also called BMP2 monomer; BMP2 chain; source: E. coli Rosetta (DE3), inclusion bodies, solubilised in urea, clarified (minimum 90 % purity)
- binding result [3]: binds

- binding result [2]: binds
B3: mature BMP2 L333P (single chain) (natural protein, human, UniProt P12643 283-396, looked up)
chain: QAKHKQRKRLKSSCKRHPLYVDFSDVGWNDWIVAPPGYHAFYCHGECPFPPADHLNSTNHAIVQTLVNSVNSKIPKACCVPTELSAISMLYLDENEKVVLKNYQDMVVEGCGCR
notes: bone morphogenetic protein 2 (BMP2), mature domain, with L333P; The single chain before dimerisation; used for the rows on dimer formation; also called L333P BMP2; source: E. coli Rosetta (DE3), inclusion bodies, solubilised in urea
- binding result [3]: binds

- binding result (FC-(ActRIIb)2): binds
- binding result (FC-(BMPR2)2): binds
- Kd (FC-(Alk3)2): 0.072 nM
B9: BMP4 homodimer (ligand, human)
chain: MSPKHHSQRARKKNKNCRRHSLYVDFSDVGWNDWIVAPPGYQAFYCHGDCPFPLADHLNSTNHAIVQTLVNSVNSSIPKACCVPTELSAISMLYLDEYDKVVLKNYQEMVVEGCGCR
notes: additional Met residue on the N-terminus of the BMP4 construct; bone morphogenetic protein 4 (BMP4), mature domain; Dimer stabilised by an inter-chain disulfide bond; also called homodimeric BMP4

- binding result [2]: binds
B10: mature BMP4 (single chain) (natural protein, human)
chain: MSPKHHSQRARKKNKNCRRHSLYVDFSDVGWNDWIVAPPGYQAFYCHGDCPFPLADHLNSTNHAIVQTLVNSVNSSIPKACCVPTELSAISMLYLDEYDKVVLKNYQEMVVEGCGCR
notes: additional Met residue on the N-terminus of the BMP4 construct; bone morphogenetic protein 4 (BMP4), mature domain; The single chain before dimerisation; used for the rows on dimer formation; also called BMP4 monomer; monomeric BMP4; source: E. coli Rosetta (DE3), inclusion bodies, solubilised in urea, clarified (minimum 90 % purity)
- binding result [3]: binds
